{
  "source": "paper PMC11143224",
  "about": "“Flavivirus Zika NS4A protein forms large oligomers in liposomes and in mild detergent” (Scientific Reports, 2024)",
  "key": {"[1]": {"target": "the molecule itself", "test": "AUC; sedimentation velocity, most diluted samples (detergent-to-protein ratio 640 and 320); 1 mM C14-betaine, 50 mM Tris-HCl pH 7.3, 100 mM NaCl, 2 mM TCEP, 33.4% D2O, 50,000 rpm, 25 °C, absorbance at 230 nm"}, "[2]": {"target": "the molecule itself", "test": "cross-linking; purified NS4A (12 uM) in POPC/POPS (4:1) liposomes, lipid-to-protein ratios 40, 100 and 250; DSS 0.03-1.0 mM, or DSG, BS3, DSS, EGS, DSP at 0.25 mM, 15 min; SDS-PAGE and anti-His-tag Western blot"}, "[3]": {"target": "the molecule itself", "test": "AUC; sedimentation equilibrium, multi-speed (15,000-33,000 rpm), 1 mM C14-betaine, 50 mM Tris-HCl pH 7.3, 100 mM NaCl, 2 mM TCEP, 33.4% D2O, absorbance at 280 nm; fitted in SEDPHAT; constant is of dimers to hexamer"}},
  "data": [
    {"protein": "full-length Zika NS4A protein (strain MR-766) (natural protein, NS4A of Zika virus strain MR-766, the cut product of the polyprotein (mature NS4A without 2K), 127 residues (1-127); also called ZIKV NS4A; NS4A-FL; not shown: His-tag, N-terminal, kept) GAALGVMEALGTLPGHMTERFQEAIDNLAVLMRAETGSRPYKAAAAQLPETLETIMLLGLLGTVSLGIFFVLMRNKGIGKMGFGMVTLGASAWLMWLSEIEPARIACVLIVVFLLLVVLIPEPEKQR", "values": [
      {"measurement": "stoichiometry N", "setting": "[1]", "value": 2},
      {"measurement": "stoichiometry N", "setting": "[2]", "value": "≥ 6"},
      {"measurement": "stoichiometry N", "setting": "[3]", "value": 6}
    ]}
  ]
}
